This note sets out measurements from IntAct's records for PubMed 17289582.

The experiment concerns the target fap24_human FAAP24 (UniProt Q9BTP7).
UniProt Q9BTP7, sequence (Q9BTP7 whole entry): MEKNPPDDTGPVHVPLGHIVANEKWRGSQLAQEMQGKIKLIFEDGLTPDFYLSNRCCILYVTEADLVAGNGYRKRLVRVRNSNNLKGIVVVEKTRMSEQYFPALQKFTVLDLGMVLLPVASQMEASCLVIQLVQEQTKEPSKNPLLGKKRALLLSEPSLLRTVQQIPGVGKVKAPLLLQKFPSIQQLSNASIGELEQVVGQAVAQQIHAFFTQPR

As for “Fanconi anemia group M protein (Homo sapiens), Q8IYD8 K117R”, the “effect of a mutation on the interaction” value is recorded as “with no effect”.
